Several values for one entry are separate records, joined by “and”; a condition that tells them apart may be missing. Equal entries are not always repeated.
Columns and labels:
[1] = target: CagY-C2 (recombinant N-terminal His-tagged CagY repeat 2 motif A fragment) (Helicobacter pylori strain Q121B); assay: SEC; 26/60 Superdex 200, 20 mM Tris (pH 8.0), 200 mM NaCl, 2 mL/min; calibrated with known standards; peaks analysed by SDS-PAGE (not shown)
[2] = target: CagY-C2 (recombinant N-terminal His-tagged CagY repeat 2 motif A fragment) (Helicobacter pylori strain Q121B); assay: non-reducing SDS-PAGE; affinity-purified His-tagged protein on 15% SDS-PAGE without reducing agent, beside a reducing gel; multimers held by disulphide linkages
[3] = target: CagY-C2_(C3S/C28S/C41S) (Helicobacter pylori strain Q121B); assay: as above

## CagY-C2 (recombinant N-terminal His-tagged CagY repeat 2 motif A fragment) (domain or fragment)
[1]
  stoichiometry N: 2
[2]
  stoichiometry N: 2 and 3 and 4

## CagY-C2_(C3S/C28S/C41S) (domain or fragment)
[3]
  stoichiometry N: 2

From PMC2581425
